As a reminder, the Kd is the concentration at which binding is half-saturated. The low end stands for higher affinity, the high end for lower affinity. Usually stoichiometry N stands for the number of molecules, sites or subunits per partner or assembly.

Results on 18 substances are retold here after paper PMC7195491.

For experiment [1], the target named is DIP-γ (Drosophila melanogaster). Nature of the experiment: SPR; Biacore T100, CM4 chip; DIPs and DIP mutants immobilised by amine coupling (760-980 RU), Dprs and Dpr mutants as analytes (three-fold dilution series, up to 81 μM, in some cases up to 27 or 9 μM); 25 °C; 10 mM Tris-HCl pH 7.2, 150 mM NaCl, 1 mM EDTA, 1 mg/mL BSA, 0.01% Tween-20; equilibrium fit, 1:1 model; for KDs > 300 μM a lower limit is listed. On the technique in general: SPR reads the build-up and loss of mass on a sensor chip optically.

Experiment [2] has as its target DIP-β (isoformG), extracellular region (Drosophila melanogaster). As to the kind of experiment: SPR; Biacore T100, CM4 chip; DIPs and DIP mutants immobilised by amine coupling, Dprs as analytes; 25 °C; 10 mM Tris-HCl pH 7.2, 150 mM NaCl, 1 mM EDTA, 1 mg/mL BSA, 0.01% Tween-20; duplicate responses fit globally to a 1:1 model; Rmax fixed for KDs > 100 μM, lower limit listed for KDs > 300 μM.

Experiment [3] has as its target DIP-α K10Q S32D {K81Q S133D}, extracellular region (Drosophila melanogaster) (UniProt Q9W4R3). The description is as above.
In experiment [4] the target is DIP-α N19D {N94D}, extracellular region (Drosophila melanogaster) (UniProt Q9W4R3). The description is as above.
Experiment [5] has as its target DIP-α A7K {A78K}, extracellular region (Drosophila melanogaster) (UniProt Q9W4R3). The description is as above.
Experiment [6] has as its target DIP-α K10Q G4S {K81Q G74S}, extracellular region (Drosophila melanogaster) (UniProt Q9W4R3). Described as above.
Experiment [7] addresses DIP-α A11T {A82T}, extracellular region (Drosophila melanogaster) (UniProt Q9W4R3). The description is as above.
In experiment [8] the target is DIP-α K10Q {K81Q}, extracellular region (Drosophila melanogaster) (UniProt Q9W4R3). The description is as above.
Experiment [9] concerns the target DIP-α G4L {G74L}, extracellular region (Drosophila melanogaster) (UniProt Q9W4R3). The description is as above.
Experiment [10] deals with DIP-α I16A {I91A}, extracellular region (Drosophila melanogaster) (UniProt Q9W4R3). Described as above.
Experiment [11] addresses DIP-α G4A {G74A}, extracellular region (Drosophila melanogaster) (UniProt Q9W4R3). The description is as above.
The target in experiment [12] is DIP-α (Drosophila melanogaster). As to the kind of experiment: SPR; Biacore T100, CM4 chip; DIPs and DIP mutants immobilised by amine coupling (760-980 RU), Dprs and Dpr mutants as analytes (three-fold dilution series, up to 81 μM, in some cases up to 27 or 9 μM); 25 °C; 10 mM Tris-HCl pH 7.2, 150 mM NaCl, 1 mM EDTA, 1 mg/mL BSA, 0.01% Tween-20; equilibrium fit, 1:1 model; for KDs > 300 μM a lower limit is listed.

For experiment [13], the target named is DIP-α K10Q G4S {K81Q G74S}, extracellular region (Drosophila melanogaster) (UniProt Q9W4R3). Nature of the experiment: AUC; sedimentation equilibrium, 25 °C, 10 mM Bis-Tris pH 6.6, 150 mM NaCl, detection at 280 nm; global fit (HeteroAnalysis); dimer to monomers; mean of two independent measurements.
The target in experiment [14] is DIP-α (Dpr Interacting Protein alpha), extracellular region (Drosophila melanogaster) (UniProt Q9W4R3). As to the kind of experiment: SPR; Biacore T100, CM4 chip; DIPs and DIP mutants immobilised by amine coupling, Dprs as analytes; 25 °C; 10 mM Tris-HCl pH 7.2, 150 mM NaCl, 1 mM EDTA, 1 mg/mL BSA, 0.01% Tween-20; duplicate responses fit globally to a 1:1 model; Rmax fixed for KDs > 100 μM, lower limit listed for KDs > 300 μM.

In experiment [15] the target is DIP-α K10Q {K81Q}, extracellular region (Drosophila melanogaster) (UniProt Q9W4R3). Nature of the experiment: AUC; sedimentation equilibrium, 25 °C, 10 mM Bis-Tris pH 6.6, 150 mM NaCl, detection at 280 nm; global fit (HeteroAnalysis); dimer to monomers; mean of two independent measurements.
The target of experiment [16] is DIP-α K10Q, extracellular region (Drosophila melanogaster). Nature of the experiment: AUC; sedimentation equilibrium, 25 °C, 10 mM Bis-Tris pH 6.6, 150 mM NaCl, UV 280 nm, global fit (HeteroAnalysis); dimer to monomers; two runs (n 1, 2) and their average.
The target in experiment [17] is DIP-α K10Q G4S, extracellular region (Drosophila melanogaster). The experiment is described as above.
Experiment [18] deals with DIP-α (Dpr Interacting Protein alpha), extracellular region (Drosophila melanogaster) (UniProt Q9W4R3). Nature of the experiment: SPR; Biacore T100, CM4 chip; DIPs and DIP mutants immobilised by amine coupling, Dprs as analytes; 25 °C; 10 mM Tris-HCl pH 7.2, 150 mM NaCl, 1 mM EDTA, 1 mg/mL BSA, 0.01% Tween-20; duplicate responses fit globally to a 1:1 model; Rmax fixed for KDs > 100 μM, lower limit listed for KDs > 300 μM. The source holds these as a separate data set.

Experiment [19] addresses DIP-α K10Q S32D {K81Q S133D}, extracellular region (Drosophila melanogaster) (UniProt Q9W4R3). Nature of the experiment: AUC; sedimentation equilibrium, 25 °C, 10 mM Bis-Tris pH 6.6, 150 mM NaCl, detection at 280 nm; global fit (HeteroAnalysis); dimer to monomers; mean of two independent measurements.
Experiment [20] deals with DIP-γ (Dpr Interacting Protein gamma), extracellular region (Drosophila melanogaster) (UniProt Q9VAR6). Nature of the experiment: SPR; Biacore T100, CM4 chip; DIPs and DIP mutants immobilised by amine coupling, Dprs as analytes; 25 °C; 10 mM Tris-HCl pH 7.2, 150 mM NaCl, 1 mM EDTA, 1 mg/mL BSA, 0.01% Tween-20; duplicate responses fit globally to a 1:1 model; Rmax fixed for KDs > 100 μM, lower limit listed for KDs > 300 μM.

Experiment [21] concerns the target DIP-α K10Q S32D, extracellular region (Drosophila melanogaster). Nature of the experiment: AUC; sedimentation equilibrium, 25 °C, 10 mM Bis-Tris pH 6.6, 150 mM NaCl, UV 280 nm, global fit (HeteroAnalysis); dimer to monomers; two runs (n 1, 2) and their average.

Where “and” joins values, the source holds several entries; their conditions need not be identical. Identical values can stand only once. Like-named read-outs stand apart in the source and are kept apart here. Where only a bound is given, the exact number is not on record here.

Sequence of DIP-γ (Dpr Interacting Protein gamma), extracellular region (Drosophila melanogaster) (Q9VAR6 entry or part of it): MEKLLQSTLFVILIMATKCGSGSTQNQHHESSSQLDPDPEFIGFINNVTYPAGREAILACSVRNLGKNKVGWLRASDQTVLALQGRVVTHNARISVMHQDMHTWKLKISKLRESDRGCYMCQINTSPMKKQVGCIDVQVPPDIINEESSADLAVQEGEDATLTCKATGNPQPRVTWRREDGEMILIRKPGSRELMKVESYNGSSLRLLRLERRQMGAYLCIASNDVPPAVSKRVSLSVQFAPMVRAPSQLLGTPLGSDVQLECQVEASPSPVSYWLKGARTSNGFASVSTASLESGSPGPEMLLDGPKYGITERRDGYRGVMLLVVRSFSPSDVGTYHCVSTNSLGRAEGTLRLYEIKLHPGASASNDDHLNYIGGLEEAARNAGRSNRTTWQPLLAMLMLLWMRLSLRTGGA

Substance Dpr11 K31V,E29Q (domain or fragment) yielded a dissociation constant (Kd) in experiment [1] of 131 µM.

In experiment [2], “Dpr10 V31K {V144K}, extracellular region (from UniProt M9PF17 1-362) (domain or fragment)” registered a Kd of 52.3 µM.

With “Dpr6 (Defective proboscis extension response 6), extracellular region (from UniProt M9PC40 1-390) (domain or fragment)”, the Kd in [3] is 26.2 µM; in [4], 1.05 µM; in experiment [5], 0.46 µM; in experiment [6], 101 µM; in experiment [7] it was 10.1 µM; in experiment [8] it was 18.4 µM. The Kd was 23.5 µM in experiment [9], 80.1 µM in [10] and 1.1 µM in [11].

In the case of Dpr6 (domain or fragment), in experiment [12], the equilibrium dissociation constant (Kd) turned out to be 2 µM.

Consider “DIP-α K10Q G4S {K81Q G74S}, extracellular region (from UniProt Q9W4R3 1-554) (domain or fragment)”, for which, in experiment [13], the dissociation constant (Kd) was found to be 46.3 µM and the stoichiometry N came to 2.

Regarding “Dpr11 K31V {K207V}, extracellular region (from UniProt Q8MRE6 1-360) (domain or fragment)”, the Kd in [2] and in experiment [14] was greater than 300 µM each time.

Regarding “Dpr11 K31V E29Q {K207V E205Q}, extracellular region (from UniProt Q8MRE6 1-360) (domain or fragment)”, the Kd in [2] and in [14] was greater than 300 µM in each case.

As for “DIP-α K10Q {K81Q}, extracellular region (from UniProt Q9W4R3 1-554) (domain or fragment)”, in experiment [15], the Kd was 19.7 µM and the stoichiometry N was found to be 2.

Take “DIP-α K10Q, extracellular region (domain or fragment)”: the dissociation constant (Kd) in experiment [16] is 17.8 µM and 21.6 µM; in experiment [16] (mean), 19.7 µM.

As for “DIP-α K10Q G4S, extracellular region (domain or fragment)”, the Kd was 52 µM and 40.6 µM in [17]; 46.3 µM in [17] (mean).

As for “Dpr10 Q26D {Q138D}, extracellular region (from UniProt M9PF17 1-362) (domain or fragment)”, the Kd in [18] is 19.3 µM.

In experiment [19], “DIP-α K10Q S32D {K81Q S133D}, extracellular region (from UniProt Q9W4R3 1-554) (domain or fragment)” displayed a Kd of 64.4 µM and a stoichiometry N of 2.

Regarding “Dpr11 K31V E29Q G10L {K207V E205Q G157L}, extracellular region (from UniProt Q8MRE6 1-360) (domain or fragment)”, the dissociation constant Kd was determined as 27.8 µM in [2] and 17.6 µM in experiment [20].

As to “Dpr10 V31K Q29E {V144K Q142E}, extracellular region (from UniProt M9PF17 1-362) (domain or fragment)”, the Kd in experiment [2] was determined as 71.6 µM.

In experiment [12], Dpr10 V31K (domain or fragment) returned a fold increase of KD over wild-type Dpr10 of 10 fold.

Regarding “DIP-α K10Q S32D, extracellular region (domain or fragment)”, the Kd in experiment [21] is 60.6 µM and 68.3 µM; in [21] (mean) it was 64.5 µM.

On to Dpr10 V31K Q29E (domain or fragment), for which the fold increase of KD over the V31K single mutant in [12] came to 2 fold.

The substance Dpr11 K31V (domain or fragment) gave a Kd in experiment [1] of 22.7 µM.
